In US20080279957A1, “Immunomodulating compositions from bile” (Lorus Therapeutics Inc., priority 2000, published 2008):

Key:
[1] = system: tumor cells (monocyte cytotoxicity assay); assay: Effect of indomethacin on tumoricidal function of cancer patients' monocytes (Example 15); settings: for regulation of tumoricidal function by an indomethacin-sensitive function: indomethacin up to 5 ng/ml
[2] = system: mouse hybridoma cell line HYB #6-1; assay: Antiproliferative bioassay in mouse hybridoma cells (Example 4); type: cell-based; settings: procedure of Example 4
Experimental: The bioassay is carried out as follows. […] Hybridoma cell samples are specifically quantitated. Using a hemocytometer the calls in a 100 μl sample are counted. The cells are concentrated by centrifugation and then cell concentration is adjusted to 1,000 cells/ml (twice the final desired concentration) by addition of appropriate volumes of fresh media. […] After 96 hours, each well is sampled at 100 μl×3 and placed in a 96 well plate. (A blank of 100 μl of medium without cells is included.) Cell density is determined using a PROMEGA CellTiter 96 kit. Cell concentration is measured by reading absorbance at 595 nm (650 nm reference) and recorded by ELISA plate reader. For each assay, a standard curve of cell concentration is prepared. Cultured cells in the log phase of growth are sampled, counted, concentrated and resuspended in serial dilutions. Each dilution is sampled at 100 μl×3 and placed in a 96 well plate. The standard curve is constructed by plotting cell density versus “net” OD at 595 nm after subtraction of zero cell blanks and OD at 650 nm. Cell density of unknown samples is determined by interpolation.

lymphocytes = assay: Stimulation of lymphocyte DNA synthesis; type: cell-based, human; settings: optimal stimulating concentration of PHA
Experimental: These indicators of immune function also can be modulated in cancer patients who are treated with different biological response modifying agents such as interferon or interleukin-2.
1) Stimulation of Lymphocyte DNA Synthesis: Comparison with an Optimal Stimulating Concentration of Phytohemagglutinin (PHA)

[3] = system: tumor cells (monocyte cytotoxicity assay); assay: Tumor cytotoxicity of peritoneal macrophages from patients with gynecological disease (Example 14); type: cell-based, human; settings: Monocyte/Tumor Cell ratio 15/1; 7 patients (3 benign, 4 malignant); composition 1:10 of batch 222, gamma interferon 100 U/ml, interleukin-12 500 U/ml, monocyte-CSF 500 U/ml
Description: Immunother 32:55-61, 1990.

[4] = system: tumor cells (monocyte cytotoxicity assay); assay: Tumor cytotoxicity of peripheral blood monocytes from patients with gynecological disease (Example 14); settings: Monocyte/Tumor Cell ratio 15/1; 7 patients (3 benign, 4 malignant); composition 1:10 of batch 222, gamma interferon 100 U/ml, interleukin-12 500 U/ml, monocyte-CSF 500 U/ml
Description: More particularly, the patient population consisted of 7 patients, 3 with benign disease and 4 with malignant disease (2 ovarian cancers, 1 endometrial cancer, and 1 cervical cancer). Samples were removed from patients at the time of surgical procedure.

Row | Molecule | regulation of tumoricidal function by an indomethacin-sensitive function [1] | % Tumor Cytotoxicity (+/−S.E.) Peritoneal Macrophage [3] | % Tumor Cytotoxicity (+/−S.E.) Peripheral Blood [4] | also measured
1 | CCCCCCCCCCCCCC(=O)O[C@@H]1[C@@H](C)[C@@]2(O)[C@@H](C=C(CO)C[C@]3(O)C(=O)C(C)=C[C@@H]23)[C@@H]2C(C)(C)[C@]12OC(C)=O [Phorbol Ester (PNA)] | not regulated by an indomethacinsensitive function | – | – | –
2 | C[C@H](CCC(=O)NCCS(=O)(=O)O)[C@H]1CC[C@H]2[C@@H]3[C@H](O)C[C@@H]4C[C@H](O)CC[C@]4(C)[C@H]3C[C@H](O)[C@]12C [sample (1), taurocholic acid] | – | – | – | anti-proliferative activity, in words [2]: Neither sample (1) nor sample (2) had any detectable anti-proliferative effect
3 | N.O [sample (2), NH3.H2O] | – | – | – | anti-proliferative activity, in words [2]: Neither sample (1) nor sample (2) had any detectable anti-proliferative effect
4 | Phytohemagglutinin [PHA] | – | – | – | Stimulation of lymphocyte DNA synthesis (lymphocytes): 125,817 Counts per Minute
5 | gamma interferon [IFN-γ] | regulated by an indomethacin-sensitive function | – | – | –
6 | granulocyte macrophage colony stimulating factor [GM-CSF] | regulated by an indomethacin-sensitive function | – | – | –
7 | interleukin-12 [IL-12] | not regulated by an indomethacinsensitive function | 8.5 ± 2% | 26.0 ± 4% | –
8 | gamma interferon (protein, UniProt P01579 24-161, looked up) Interferon gamma: QDPYVKEAENLKKYFNAGHSDVADNGTLFLGILKNWKEESDRKIMQSQIVSFYFKLFKNFKDDQSIQKSVETIKEDMNVKFFNSNKKKRDDFEKLTNYSVTDLNVQRKAIHELIQVMAELSPAAKTGKRKRSQMLFRG | – | 9.5 ± 1% | 18.3 ± 2% | –
9 | monocyte-CSF (protein, UniProt P09603 33-554, looked up) Macrophage colony-stimulating …: EEVSEYCSHMIGSGHLQSLQRLIDSQMETSCQITFEFVDQEQLKDPVCYLKKAFLLVQDIMEDTMRFRDNTPNAIAIVQLQELSLRLKSCFTKDYEEHDKACVRTFYETPLQLLEKVKNVFNETKNLLDKDWNIFSKNCNNSFAECSSQDVVTKPDCNCLYPKAIPSSDPASVSPHQPLAPSMAPVAGLTWEDSEGTEGSSLLPGEQPLHTVDPGSAKQRPPRSTCQSFEPPETPVVKDSTIGGSPQPRPSVGAFNPGMEDILDSAMGTNWVPEEASGEASEIPVPQGTELSPSRPGGGSMQTEPARPSNFLSASSPLPASAKGQQPADVTGTALPRVGPVRPTGQDWNHTPQKTDHPSALLRDPPEPGSPRISSLRPQGLSNPSTLSAQPQLSRSHSSGSVLPLGELEGRRSTRDRRSPAEPEGGPASEGAARPLPRFNSVPLTDTGHERQSEGSFSPQLQESVFHLLVPSVILVLLAVGGLLFYRWRRRSHQEPQRADSPLEQPEGSPLTQDDRQVELPV | regulated by an indomethacin-sensitive function | 7.0 ± 2% | 16.0 ± 2% | % cytotoxicity ([1]; peripheral blood monocytes from cancer patients, activator alone or with indomethacin (up to 5 ng/ml) added simultaneously): 14.1 ± 3%
